The target in experiment [1] is endogenous cellular PCNA (cell lysates, permeabilised cells, FFPE tissue) (human) (UniProt P12004). In words: image stream of HeLa cells, similarity of the AF488 antibody stain to the 7AAD nuclear stain; 190 of 3950 cells.
Experiment [2] addresses NKp44 isoform 2 (NKp44-2) on NK92-44-2 cells (UniProt O95944). In words: cell-based or functional assay.
The target in experiment [3] is NKp44 isoform 3 (NKp44-3) on NK92-44-3 cells (UniProt O95944). In words: cell-based or functional assay.
In experiment [4] the target is NKp44 isoform 1 (NKp44-1) on NK92-44-1 cells (Homo sapiens (Human)) (UniProt O95944). Kind of experiment: cell-based or functional assay.

Sequence of UniProt P12004 (P12004 whole entry, canonical isoform): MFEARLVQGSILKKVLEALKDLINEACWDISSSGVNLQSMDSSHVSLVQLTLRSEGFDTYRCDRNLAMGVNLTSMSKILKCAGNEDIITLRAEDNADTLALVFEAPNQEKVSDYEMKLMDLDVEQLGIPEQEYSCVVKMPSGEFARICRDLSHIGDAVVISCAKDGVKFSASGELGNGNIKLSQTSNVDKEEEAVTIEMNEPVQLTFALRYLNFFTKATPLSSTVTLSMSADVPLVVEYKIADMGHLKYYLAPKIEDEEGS

Take “commercial anti PCNA mAb clone PC10 (antibody)”: in experiment [1], the %Gated in the gate 'Cytoplasmic PCNA' is 4.81%.
“PCNA over-expressed in HeLa target cells (from UniProt P12004 1-261)”: the relative amount of F-actin accumulating at the immune synapse in experiment [2] is 6.9%; in experiment [3], 4.6%; in experiment [4], -22.6%.

These data come from patent US20210032320A1.
